Assay [1] has as its target T1, cynomolgus CD16 expressed on CHO-K1 cells (cynomolgus, UniProt Q8SPW2 17-254).
T1 construct: whole, on cells; also called cyno CD16; CHO-K1-cynoCD16
As to the kind of experiment: flow cytometry, CHO-K1-cyno CD16 cells, Alexa Fluor 647 anti-human IgG Fc, geometric mean. On the procedure: (§1) In order to evaluate the binding activity of the chimeric mAbs to human CD16A expressed on cells, cell-based binding assay was employed as followed. […] The antibody dilutions were incubated with 1×10⁵ indicated cells in the 96-well microplate for one hour at 4° C. The antibodies binding to the antigen on the cell surface were detected with PE fluorophore-conjugated anti-human IgG Fc secondary antibodies (ThermoFisher scientific, Cat. No. 12-4998-82) at a dilution rate of 1:1000. Cells were analyzed by flow cytometer LSRFortessa Cell Analyzer (BD Biosciences). Data were analyzed with Flowjo 10.0 software. The graph and statistics analysis were generated with four-parameter nonlinear regression curve fit in Graphpad Prism 9 software.
(§2) The assay was performed following the protocol described above. The antibodies binding to the antigen on the cell surface were detected with Alexa Fluor® 647 AffiniPure™ F(ab′)₂ fragment goat anti-human IgG Fcγ fragment specific secondary antibody (Jackson Immuno Research, Cat. No. 109-606-098) at a dilution rate of 1:2000.

Assay [2] deals with T2, human CD16B-NA1 expressed on CHO-K1 cells (human, UniProt O75015 17-200).
T2 construct: whole, on cells; also called hCD16B-NA1; CHO-K1-hCD16B-NA1
T2 sequence (O75015 other isoform, or with tags, fused parts or gaps): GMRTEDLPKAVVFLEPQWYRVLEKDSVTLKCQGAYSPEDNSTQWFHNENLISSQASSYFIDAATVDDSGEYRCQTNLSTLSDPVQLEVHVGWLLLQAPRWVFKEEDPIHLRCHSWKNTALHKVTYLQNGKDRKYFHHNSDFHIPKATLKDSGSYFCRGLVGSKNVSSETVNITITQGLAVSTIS
As to the kind of experiment: flow cytometry, CHO-K1-hCD16B-NA1 cells, Alexa Fluor 647 anti-human IgG Fc, geometric mean. How it is done:
as §1, §2
On the technique in general: A flow cytometer gives signals particle by particle.

Assay [3] concerns the target T3, human CD16A-158F expressed on CHO-K1 cells (human, UniProt P08637 17-254).
T3 construct: whole, on cells
Briefly: flow cytometry, CHO-K1-hCD16A-158F cells, Alexa Fluor 647 anti-human IgG Fc, geometric mean. How it is done: as §1, §2

Assay [4] addresses T4, human CD16A-158V expressed on CHO-K1 cells (human, UniProt P08637 17-254).
T4 construct: whole, on cells; also called hCD16A-158V; CHO-K1-hCD16A-158V
As to the kind of experiment: flow cytometry, CHO-K1-hCD16A-158V cells, geometric mean. How it is done: as §1
(§3) The assay was performed following the protocol described above.

For assay [5], the target named is T4, human CD16A-158V expressed on CHO-K1 …. Briefly: flow cytometry, CHO-K1-hCD16A-158V cells, Alexa Fluor 647 anti-human IgG Fc, geometric mean. On the procedure: as §1, §2
Assay [6] concerns the target T1, cynomolgus CD16 expressed on CHO-K1 …. As to the kind of experiment: flow cytometry, CHO-K1-cyno CD16 cells, geometric mean. On the procedure: as §1, §3
Assay [7] deals with T3, human CD16A-158F expressed on CHO-K1 …. As to the kind of experiment: flow cytometry, CHO-K1-hCD16A-158F cells, geometric mean. How it is done: as §1, §3
Assay [8] addresses T2, human CD16B-NA1 expressed on CHO-K1 …. As to the kind of experiment: flow cytometry, CHO-K1-hCD16B-NA1 cells, geometric mean.
Assay [9] deals with T5, human GPC3 on HepG2 cells (human, UniProt P51654 25-554).
T5 construct: whole, on cells; also called GPC3-positive HepG2 cells
T5 sequence (P51654 25-554 limits assumed): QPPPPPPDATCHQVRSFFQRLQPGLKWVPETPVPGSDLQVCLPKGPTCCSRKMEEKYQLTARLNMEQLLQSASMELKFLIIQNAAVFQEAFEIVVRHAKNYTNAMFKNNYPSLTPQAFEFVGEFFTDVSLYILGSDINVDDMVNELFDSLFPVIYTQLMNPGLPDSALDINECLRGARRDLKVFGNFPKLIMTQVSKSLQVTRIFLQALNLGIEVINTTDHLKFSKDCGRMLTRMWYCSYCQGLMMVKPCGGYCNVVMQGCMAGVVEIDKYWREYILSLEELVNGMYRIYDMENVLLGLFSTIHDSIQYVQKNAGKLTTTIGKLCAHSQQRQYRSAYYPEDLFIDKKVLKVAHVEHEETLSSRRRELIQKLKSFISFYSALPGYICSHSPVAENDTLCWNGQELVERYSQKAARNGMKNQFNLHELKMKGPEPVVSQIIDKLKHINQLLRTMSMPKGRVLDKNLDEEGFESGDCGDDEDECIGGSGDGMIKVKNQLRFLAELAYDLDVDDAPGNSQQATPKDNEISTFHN
Briefly: flow cytometry, HepG2 cells (GPC3 positive), geometric mean.

The target in assay [10] is T3, human CD16A-158F expressed on CHO-K1 …. Briefly: flow cytometry, CHO-K1-hCD16A-158F cells, geometric mean. The source holds these as a separate data set.
The target of assay [11] is T4, human CD16A-158V expressed on CHO-K1 …. Briefly: flow cytometry, CHO-K1-hCD16A-158V cells, geometric mean. The source holds these as a separate data set.
In assay [12] the target is T6, mouse CCR8 expressed on CHO-K1 cells (mouse, UniProt P56484 1-353).
T6 construct: whole, on cells; also called mCCR8; murine CCR8
T6 sequence (looked up): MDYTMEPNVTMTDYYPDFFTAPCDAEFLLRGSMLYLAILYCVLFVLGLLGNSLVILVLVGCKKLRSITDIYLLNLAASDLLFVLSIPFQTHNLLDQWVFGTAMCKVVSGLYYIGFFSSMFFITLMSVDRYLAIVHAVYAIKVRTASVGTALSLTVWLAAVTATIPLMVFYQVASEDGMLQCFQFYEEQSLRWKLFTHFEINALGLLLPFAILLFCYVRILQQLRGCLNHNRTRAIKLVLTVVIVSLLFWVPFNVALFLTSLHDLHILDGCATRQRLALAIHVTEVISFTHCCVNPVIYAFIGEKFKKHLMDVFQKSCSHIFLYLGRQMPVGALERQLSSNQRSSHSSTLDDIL
As to the kind of experiment: flow cytometry, CHO-K1 mCCR8 cells (CHO-K1 NC parental cells as control), PE anti-human IgG Fc, geometric mean. How it is done: (§4) Briefly, HEK293 hCCR8 cell line, CHO-K1 mCCR8 cell line and the parental cell lines were first incubated with serially diluted 194A1G9 at 4° C. for 30 mins. After washing by FACS buffer, PE Goat anti-Human IgG Fc Secondary Antibody (eBioscience™, Invitrogen) was added to each well and incubated at 4° C. for 30 mins. Samples were washed twice with FACS staining buffer. The mean florescence intensity (MFI) of PE was evaluated by MACSQuant Analyzer 16.

For assay [13], the target named is T7, human CCR8 expressed on cells (human, UniProt P51685 1-355).
T7 construct: whole, on cells; also called hCCR8; HEK293 hCCR8 cell line
T7 sequence (P51685 whole entry): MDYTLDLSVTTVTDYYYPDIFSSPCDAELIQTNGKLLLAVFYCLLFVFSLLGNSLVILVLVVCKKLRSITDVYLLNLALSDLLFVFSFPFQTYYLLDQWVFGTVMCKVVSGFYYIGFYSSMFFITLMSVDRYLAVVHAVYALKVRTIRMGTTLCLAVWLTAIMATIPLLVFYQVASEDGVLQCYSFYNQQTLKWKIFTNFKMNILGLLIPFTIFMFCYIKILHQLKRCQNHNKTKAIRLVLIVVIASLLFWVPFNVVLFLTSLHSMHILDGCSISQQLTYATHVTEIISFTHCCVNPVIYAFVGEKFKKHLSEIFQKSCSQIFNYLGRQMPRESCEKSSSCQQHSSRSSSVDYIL
Briefly: flow cytometry, HEK293 hCCR8 cells (HEK293 NC parental cells as control), PE anti-human IgG Fc, geometric mean. How it is done:
as §4

T4 sequence (P08637 17-254 F176V): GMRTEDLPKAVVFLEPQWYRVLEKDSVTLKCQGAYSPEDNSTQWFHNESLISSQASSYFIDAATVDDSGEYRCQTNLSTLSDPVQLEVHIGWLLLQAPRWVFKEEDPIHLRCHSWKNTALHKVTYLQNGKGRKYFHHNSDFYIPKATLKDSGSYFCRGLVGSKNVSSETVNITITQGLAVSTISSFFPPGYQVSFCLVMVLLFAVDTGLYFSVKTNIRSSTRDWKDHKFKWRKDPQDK
T3 sequence (P08637 17-254): as the sequence (P08637 17-254 F176V) above, with V160F counted along it
T1 sequence (Q8SPW2 17-254): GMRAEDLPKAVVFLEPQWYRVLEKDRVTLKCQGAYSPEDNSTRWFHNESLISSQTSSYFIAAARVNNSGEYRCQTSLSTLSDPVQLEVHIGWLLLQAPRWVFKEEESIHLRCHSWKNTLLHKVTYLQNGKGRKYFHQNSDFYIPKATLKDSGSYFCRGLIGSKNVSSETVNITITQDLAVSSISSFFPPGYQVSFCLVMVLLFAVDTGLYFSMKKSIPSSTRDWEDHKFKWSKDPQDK

B1: 45H6E8-z19 (antibody, human IgG1, V domains shown)
VH: QVQLVQSGAEVKKPGASVKVSCKVSGYTLTDYYMQWVRQAPGKGLEWIGWIDPENGDTEYAPKFQGRVTMTADTSTDTAYMELSSLRSEDTAVYYCTTGGNYVDWGQGTTVTVSS
VL: DIQMTQSPSFLSASVGDRVTITCKASQNVGTAVAWYQQKPGKAPKLLIYSASNRYTGVPDRFSGSGSGTDFTLTISSLQPEDFATYFCQQYSSYPLLTFGQGTRLEIK
notes: Human IgG1 LALAPG constant region; also called HU-VH1-6 / HU-VL1-3
For B1, the EC50 (read off the curve) (as a rule, the concentration needed to bring the measured effect to its halfway point) in [1] was about 1 nM; in [3] it was about 0.4 nM; in assay [4], about 0.4 nM; in assay [5], about 0.4 nM; in assay [6] it was about 0.7 nM; in assay [7], about 0.4 nM. In [2], the binding result is on record as “no binding (tested: 100 nM)”.

B2: 45H6E8-z20 (antibody, human IgG1, V domains shown)
VH: QVQLVQSGAEVKKPGASVKVSCKVSGYTLTDYYMQWVRQAPGKGLEWMGWIDPENGDTEYAPKFQGRATMTADTSTDTAYMELSSLRSEDTAVYYCTTGGNYVDWGQGTTVTVSS
VL: DIQMTQSPSFLSASVGDRVTITCKASQNVGTAVAWYQQKPGKAPKLLIYSASNRYTGVPDRFSGSGSGTDFTLTISSLQPEDFATYFCQQYSSYPLLTFGQGTRLEIK
notes: Human IgG1 LALAPG constant region; also called HU-VH1-7 / HU-VL1-3
With B2, the 50% effective concentration (EC50 (read off the curve)) in assay [1] is about 1 nM; in [3], about 0.4 nM; in [4], about 0.4 nM; in assay [5] it was about 0.4 nM; in [6], about 0.8 nM; in [7] it was about 0.4 nM. Further, the binding result in assay [2] is given as “no binding (tested: 100 nM)”.

B3: 45H6E8-z17 (antibody, human IgG1, V domains shown)
VH: QVQLVQSGAEVKKPGASVKVSCKVSGYTLKDYYMQWVRQAPGKGLEWIGWIDPENGDTEYAPKFQGKATMTADTSTDTAYMELSSLRSEDTAVYYCTTGGNYVDWGQGTTVTVSS
VL: DIQMTQSPSFLSASVGDRVTITCKASQNVGTAVAWYQQKPGKAPKLLIYSASNRYTGVPDRFSGSGSGTDFTLTISSLQPEDFATYFCQQYSSYPLLTFGQGTRLEIK
notes: Human IgG1 LALAPG constant region; also called HU-VH1-5 / HU-VL1-3
In the case of B3, the figures for the “EC50 (read off the curve)” value in assay [1], in assay [3] and in assay [5] were about 1 nM, about 0.4 nM and about 0.4 nM, respectively. For the same molecule, the binding result in assay [2] is “no binding (tested: 100 nM)”.

B4: 45H6E8-z20p1 (antibody, V domains shown)
VH: QVQLVQSGAEVKKPGASVKVSCKVSGYTLTDYYMQWVRQAPGKGLEWMGWIDPEQGDTEYAPKFQGRATMTADTSTDTAYMELSSLRSEDTAVYYCTTGGNYVDWGQGTTVTVSS
VL: DIQMTQSPSFLSASVGDRVTITCKASQNVGTAVAWYQQKPGKAPKLLIYSASNRYTGVPDRFSGSGSGTDFTLTISSLQPEDFATYFCQQYSSYPLLTFGQGTRLEIK
notes: PTM-removed version of z20
B4: the binding result in assay [8] is given as “no binding (tested: 100 nM)”. The “EC50 (read off the curve)” value was about 0.4 nM in assay [4], about 0.7 nM in assay [6] and about 0.4 nM in [7].

B5: 45H6E8-z13 (antibody, V domains shown)
VH: QVQLVQSGAEVKKPGASVKVSCKVSGYTLTDYYMQWVRQAPGKGLEWMGWIDPENGDTEYAPKFQGRVTMTEDTSTDTAYMELSSLRSEDTAVYYCATGGNYVDWGQGTTVTVSS
VL: DIQMTQSPSFLSASVGDRVTITCKASQNVGTAVAWYQQKPGKAPKLLIYSASNRYTGVPDRFSGSGSGTDFTLTISSLQPEDFATYFCQQYSSYPLLTFGQGTRLEIK
notes: also called HU-VH1-1 / HU-VL1-3
As for B5, the “EC50 (read off the curve)” value in assay [1] was about 1 nM; in assay [3], about 0.4 nM; in assay [5] it was about 0.4 nM. The binding result in assay [2] is listed as “no binding (tested: 100 nM)”.

B6: 45H6E8-z19p1 (antibody, V domains shown)
VH: QVQLVQSGAEVKKPGASVKVSCKVSGYTLTDYYMQWVRQAPGKGLEWIGWIDPEQGDTEYAPKFQGRVTMTADTSTDTAYMELSSLRSEDTAVYYCTTGGNYVDWGQGTTVTVSS
VL: DIQMTQSPSFLSASVGDRVTITCKASQNVGTAVAWYQQKPGKAPKLLIYSASNRYTGVPDRFSGSGSGTDFTLTISSLQPEDFATYFCQQYSSYPLLTFGQGTRLEIK
notes: PTM-removed (N to Q in VH CDR2) version of z19
Turning to B6, the binding result in assay [8] and in assay [9] was “no binding (tested: 100 nM)” throughout. Moreover, the “EC50 (read off the curve)” value in assay [4] was about 0.4 nM; in [10], about 0.5 nM; in assay [6], about 0.7 nM; in [11] it was about 0.5 nM; in [7], about 0.4 nM.

B7: 194A1G9 (antibody, V domains shown)
VH: QVQLQQSGTELVRPGASVTLSCKASGYTFTDHEMYWVKQTPVHGLEWIGAVDPETGSTAYNQKFKVKAILTADKSSSTAYMELRSLTSEDSAVYYCTSRLRRAMDNWGHGTSVTVSS
VL: DVVLTQTPLSLPVSPGDQASISCRSSQTLLHSSGNTYLHWFLQKPGQSPKLLIYKVSNRFSGVPDRFSGSGSGTDFTLKISRVEAEDLGVYFCSQNTHVPWTFGGGTKLEIK
notes: Detected with anti-human IgG Fc, so with a human Fc; also called surrogate anti-CCR8 antibody 194A1G9; in house anti-mCCR8 clone 194A1G9
Regarding B7, the “EC50 (read off the curve)” value is about 5 nM in [12] and about 0.1 nM in assay [13].

(Values after patent US20260242485A1 (LEPU BIOPHARMA, published 2026).)
